Five molecules from patent publication US20200317768A1 (published 2020) can be followed below.

Common to all, as to assay: SPR (Biacore), antibody captured on chip, FcgR extracellular domain as analyte, 25 C
Test [1] concerns the target T1, cynomolgus monkey FcγRIIb extracellular domain with C-terminal His-tag (cynomolgus monkey).
T1 construct: Expressed in FreeStyle 293 cells and purified; also called cyno FcγRIIb; cynoFcγRIIb; not shown: C-terminal His-tag
T1 chain: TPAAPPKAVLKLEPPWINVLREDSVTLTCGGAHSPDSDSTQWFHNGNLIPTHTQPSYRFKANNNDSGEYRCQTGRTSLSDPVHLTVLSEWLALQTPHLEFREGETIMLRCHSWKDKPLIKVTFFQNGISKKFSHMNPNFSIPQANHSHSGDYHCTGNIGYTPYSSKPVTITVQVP
On the procedure: (§1) The kinetic analysis of interactions between these antibodies and FcγR was carried out using BIACORE® T200 or BIACORE® 4000 (GE Healthcare). HBS-EP+ (GE Healthcare) was used as the running buffer, and the measurement temperature was set to 25° C. A chip produced by immobilizing Protein A. Protein A/G or mouse anti-human IgG kappa light chain (BD Biosciences) onto a Series S Sensor Chip CM4 or CM5 (GE Healthcare) by the amine-coupling method was used. […] After the measurement, the antibody captured on the chip was washed off by allowing reaction with 10 mM glycine-HCl, pH1.5 and 25 mM NaOH so that the chip was regenerated and used repeatedly. The sensorgrams obtained as measurement results were analyzed by the 1:1 Langmuir binding model using the BIACORE® Evaluation Software to calculate the binding rate constant ka (L/mol/s) and dissociation rate constant kd (l/s), and the dissociation constant KD (mol/L) was calculated from these values. […] Regarding such interactions, KD values were calculated using the following 1:1 binding model described in BIACORE® T100 Software Handbook BR1006-48 Edition AE.
(§2) The resultant variants were expressed using M103202L889-SK1 as light chain and their affinity to human and cynoFcγRs were evaluated (Table 20).

Test [2] addresses T2, cynomolgus monkey FcγRIIIaS extracellular domain with C-terminal His-tag (cynomolgus monkey, UniProt Q8SPW2 21-206 at identity 1.00)).
T2 construct: Expressed in FreeStyle 293 cells and purified; also called cyno FcγRIIIaS; cynoFcγRIIIaS; not shown: C-terminal His-tag
T2 chain: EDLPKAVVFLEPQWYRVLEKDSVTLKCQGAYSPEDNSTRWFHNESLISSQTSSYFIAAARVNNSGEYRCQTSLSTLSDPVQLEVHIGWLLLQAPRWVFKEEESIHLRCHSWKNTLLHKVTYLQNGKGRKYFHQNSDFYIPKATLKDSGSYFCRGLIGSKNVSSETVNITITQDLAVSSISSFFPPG
The protocol:
as §1, §2

The target in test [3] is T3, human FcγRIIaR extracellular domain with C-terminal His-tag (human, UniProt P12318 34-217).
T3 construct: Expressed in FreeStyle 293 cells and purified; also called human FcγRIIa (type R); FcgRIIaR; not shown: C-terminal His-tag
T3 chain: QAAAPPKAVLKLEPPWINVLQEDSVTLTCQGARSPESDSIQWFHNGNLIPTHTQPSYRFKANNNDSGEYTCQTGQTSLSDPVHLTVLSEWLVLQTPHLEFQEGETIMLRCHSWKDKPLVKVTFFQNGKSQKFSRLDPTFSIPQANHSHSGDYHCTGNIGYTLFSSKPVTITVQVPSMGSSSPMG
On the procedure: as §1, §2

Test [4] addresses T4, human FcγRIIb extracellular domain with C-terminal His-tag (human, UniProt P31994 43-217).
T4 construct: Expressed in FreeStyle 293 cells and purified; also called humanFcgRIIb; not shown: C-terminal His-tag
T4 sequence: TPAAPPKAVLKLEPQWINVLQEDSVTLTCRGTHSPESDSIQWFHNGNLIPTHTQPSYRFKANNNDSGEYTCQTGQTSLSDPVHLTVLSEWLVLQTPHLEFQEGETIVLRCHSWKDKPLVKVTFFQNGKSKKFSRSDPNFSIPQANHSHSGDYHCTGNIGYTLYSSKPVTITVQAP
The protocol: as §1, §2

The target in test [5] is T5, cynomolgus monkey FcγRIIa1 extracellular domain with C-terminal His-tag (cynomolgus monkey).
T5 construct: Expressed in FreeStyle 293 cells and purified; also called cyno FcγRIIa1; cynoFcgRIIa1; not shown: C-terminal His-tag
T5 chain: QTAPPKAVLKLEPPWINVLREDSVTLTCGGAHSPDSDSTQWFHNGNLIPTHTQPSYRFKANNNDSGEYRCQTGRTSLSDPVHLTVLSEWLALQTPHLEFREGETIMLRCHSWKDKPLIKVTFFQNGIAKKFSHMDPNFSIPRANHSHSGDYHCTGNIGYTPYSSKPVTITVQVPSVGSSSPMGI
The protocol:
as §1, §2

Test [6] has as its target T6, human FcγRIIIaV extracellular domain with C-terminal His-tag (human, UniProt P08637 17-208).
T6 construct: Expressed in FreeStyle 293 cells and purified; also called FcgRIIIaV; not shown: C-terminal His-tag
On the procedure: as §1, §2

In test [7] the target is T7, cynomolgus monkey FcγRIIa3 extracellular domain with C-terminal His-tag (cynomolgus monkey).
T7 construct: Expressed in FreeStyle 293 cells and purified; also called cyno FcγRIIa3; cynoFcgRIIa3; not shown: C-terminal His-tag
T7 chain: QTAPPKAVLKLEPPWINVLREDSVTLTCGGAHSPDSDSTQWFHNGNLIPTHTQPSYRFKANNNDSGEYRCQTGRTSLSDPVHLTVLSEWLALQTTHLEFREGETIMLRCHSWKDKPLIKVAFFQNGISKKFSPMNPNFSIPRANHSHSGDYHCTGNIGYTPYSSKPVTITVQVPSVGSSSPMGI
The protocol: as §1, §2

T6 sequence (P08637 17-208 F176V): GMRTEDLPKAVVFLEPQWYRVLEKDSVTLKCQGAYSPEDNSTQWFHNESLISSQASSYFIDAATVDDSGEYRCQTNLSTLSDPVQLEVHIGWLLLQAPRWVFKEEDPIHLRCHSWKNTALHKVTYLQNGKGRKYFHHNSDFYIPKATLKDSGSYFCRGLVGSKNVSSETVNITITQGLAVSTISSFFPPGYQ

B1: MS_M103205H795-SG1/M103202L889-SK1 (antibody, human IgG1, kappa)
heavy: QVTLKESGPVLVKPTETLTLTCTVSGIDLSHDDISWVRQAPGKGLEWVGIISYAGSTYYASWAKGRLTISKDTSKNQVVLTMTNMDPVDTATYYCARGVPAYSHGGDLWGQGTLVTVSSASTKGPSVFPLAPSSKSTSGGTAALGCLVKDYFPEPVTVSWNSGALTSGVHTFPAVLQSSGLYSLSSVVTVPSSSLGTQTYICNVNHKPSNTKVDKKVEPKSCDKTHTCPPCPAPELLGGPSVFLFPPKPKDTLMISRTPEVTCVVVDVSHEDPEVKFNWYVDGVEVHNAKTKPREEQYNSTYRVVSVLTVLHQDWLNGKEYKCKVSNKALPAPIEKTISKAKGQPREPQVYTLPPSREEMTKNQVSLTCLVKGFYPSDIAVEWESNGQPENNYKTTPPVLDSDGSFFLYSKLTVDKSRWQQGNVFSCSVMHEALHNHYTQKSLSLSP
light: DIVMTQSPATLSLSPGERATLSCTSSQSVYHANWLSWFQQKPGQPPKLLIYWASTLAYGVPSRFSGSGSGTDFTLTISSLQPEDAATYYCAGGYGGGRYAFGQGTKVEIKRTVAAPSVFIFPPSDEQLKSGTASVVCLLNNFYPREAKVQWKVDNALQSGNSQESVTEQDSKDSTYSLSSTLTLSKADYEKHKVYACEVTHQGLSSPVTKSFNRGEC
notes: Anti-latent myostatin IgG; also called MS1032LO06-SG1
The term Kd denotes the concentration at which binding is half-saturated. With B1, the Kd was determined as 1800 nM in test [1]; 360 nM in test [2]; 1100 nM in test [3]; 4600 nM in test [4]; 3200 nM in test [5]; 810 nM in test [6]. The Kd in test [7] is 17000 nM.

B2: M103205H795-MY052 / M103202L889-SK1 (antibody, human IgG1, kappa)
heavy: QVTLKESGPVLVKPTETLTLTCTVSGIDLSHDDISWVRQAPGKGLEWVGIISYAGSTYYASWAKGRLTISKDTSKNQVVLTMTNMDPVDTATYYCARGVPAYSHGGDLWGQGTLVTVSSASTKGPSVFPLAPSSKSTSGGTAALGCLVKDYFPEPVTVSWNSGALTSGVHTFPAVLQSSGLYSLSSVVTVPSSSLGTQTYICNVNHKPSNTKVDKKVEPKSCDKTHTCPPCPAPELLNGPSVFLFPPKPKDTLMISRTPEVTCVVVDVSEEDPEVKFNWYVDGVEVHNAKTKPREEQYNSTYRVVSVLTVLHQDWLNGKEYKCKVSNKALPAPIEKTISKAKGQPREPQVYTLPPSREEMTKNQVSLTCLVKGFYPSDIAVEWESNGQPENNYKTTPMVLDSDGSFFLYSKLTVDKSRWQQGNVFSCSVMHEALHNHYTQKSLSLSP
light: DIVMTQSPATLSLSPGERATLSCTSSQSVYHANWLSWFQQKPGQPPKLLIYWASTLAYGVPSRFSGSGSGTDFTLTISSLQPEDAATYYCAGGYGGGRYAFGQGTKVEIKRTVAAPSVFIFPPSDEQLKSGTASVVCLLNNFYPREAKVQWKVDNALQSGNSQESVTEQDSKDSTYSLSSTLTLSKADYEKHKVYACEVTHQGLSSPVTKSFNRGEC
notes: Fc variant of M103205H795-SG1, expressed with M103202L889-SK1 as light chain; parent of the position 396 variants
As for B2, the dissociation constant Kd in test [1] is 460 nM; in test [2] it was 1500 nM; in test [3], 1400 nM; in test [4], 720 nM; in test [5], 1400 nM; in test [6], 1500 nM. The same molecule displayed a Kd in test [7] of 3900 nM.

B3: M103205H795-MY170 / M103202L889-SK1 (antibody, human IgG1, kappa)
heavy: QVTLKESGPVLVKPTETLTLTCTVSGIDLSHDDISWVRQAPGKGLEWVGIISYAGSTYYASWAKGRLTISKDTSKNQVVLTMTNMDPVDTATYYCARGVPAYSHGGDLWGQGTLVTVSSASTKGPSVFPLAPSSKSTSGGTAALGCLVKDYFPEPVTVSWNSGALTSGVHTFPAVLQSSGLYSLSSVVTVPSSSLGTQTYICNVNHKPSNTKVDKKVEPKSCDKTHTCPPCPAPELLNGPSVFLFPPKPKDTLMISRTPEVTCVVVDVSEEDPEVKFNWYVDGVEVHNAKTKPREEQYNSTYRVVSVLTVLHQDWLNGKEYKCKVSNKALPAPIEKTISKAKGQPREPQVYTLPPSREEMTKNQVSLTCLVKGFYPSDIAVEWESNGQPENNYKTTPEVLDSDGSFFLYSKLTVDKSRWQQGNVFSCSVMHEALHNHYTQKSLSLSP
light: DIVMTQSPATLSLSPGERATLSCTSSQSVYHANWLSWFQQKPGQPPKLLIYWASTLAYGVPSRFSGSGSGTDFTLTISSLQPEDAATYYCAGGYGGGRYAFGQGTKVEIKRTVAAPSVFIFPPSDEQLKSGTASVVCLLNNFYPREAKVQWKVDNALQSGNSQESVTEQDSKDSTYSLSSTLTLSKADYEKHKVYACEVTHQGLSSPVTKSFNRGEC
notes: Position 396 variant derived from MY052, expressed with M103202L889-SK1 as light chain
Regarding B3, the Kd in test [1] turned out to be 1200 nM; in test [2] it was 2900 nM; in test [3], 2500 nM; in test [4], 1600 nM; in test [5] it was 2300 nM; in test [6], 6300 nM. In test [7], this molecule returned a Kd of 12000 nM.

B4: M103205H795-MY169 / M103202L889-SK1 (antibody, human IgG1, kappa)
heavy: QVTLKESGPVLVKPTETLTLTCTVSGIDLSHDDISWVRQAPGKGLEWVGIISYAGSTYYASWAKGRLTISKDTSKNQVVLTMTNMDPVDTATYYCARGVPAYSHGGDLWGQGTLVTVSSASTKGPSVFPLAPSSKSTSGGTAALGCLVKDYFPEPVTVSWNSGALTSGVHTFPAVLQSSGLYSLSSVVTVPSSSLGTQTYICNVNHKPSNTKVDKKVEPKSCDKTHTCPPCPAPELLNGPSVFLFPPKPKDTLMISRTPEVTCVVVDVSEEDPEVKFNWYVDGVEVHNAKTKPREEQYNSTYRVVSVLTVLHQDWLNGKEYKCKVSNKALPAPIEKTISKAKGQPREPQVYTLPPSREEMTKNQVSLTCLVKGFYPSDIAVEWESNGQPENNYKTTPDVLDSDGSFFLYSKLTVDKSRWQQGNVFSCSVMHEALHNHYTQKSLSLSP
light: DIVMTQSPATLSLSPGERATLSCTSSQSVYHANWLSWFQQKPGQPPKLLIYWASTLAYGVPSRFSGSGSGTDFTLTISSLQPEDAATYYCAGGYGGGRYAFGQGTKVEIKRTVAAPSVFIFPPSDEQLKSGTASVVCLLNNFYPREAKVQWKVDNALQSGNSQESVTEQDSKDSTYSLSSTLTLSKADYEKHKVYACEVTHQGLSSPVTKSFNRGEC
notes: as for B3
As to B4, the dissociation constant Kd in test [1] was found to be 1000 nM; in test [2], 3500 nM; in test [3], 2500 nM; in test [4], 1300 nM; in test [5], 2300 nM; in test [6] it was 6200 nM. Binding in test [7] was characterised by a dissociation constant (Kd) of 9900 nM.

B5: M103205H795-MY168 / M103202L889-SK1 (antibody, human IgG1, kappa)
heavy: QVTLKESGPVLVKPTETLTLTCTVSGIDLSHDDISWVRQAPGKGLEWVGIISYAGSTYYASWAKGRLTISKDTSKNQVVLTMTNMDPVDTATYYCARGVPAYSHGGDLWGQGTLVTVSSASTKGPSVFPLAPSSKSTSGGTAALGCLVKDYFPEPVTVSWNSGALTSGVHTFPAVLQSSGLYSLSSVVTVPSSSLGTQTYICNVNHKPSNTKVDKKVEPKSCDKTHTCPPCPAPELLNGPSVFLFPPKPKDTLMISRTPEVTCVVVDVSEEDPEVKFNWYVDGVEVHNAKTKPREEQYNSTYRVVSVLTVLHQDWLNGKEYKCKVSNKALPAPIEKTISKAKGQPREPQVYTLPPSREEMTKNQVSLTCLVKGFYPSDIAVEWESNGQPENNYKTTPAVLDSDGSFFLYSKLTVDKSRWQQGNVFSCSVMHEALHNHYTQKSLSLSP
light: DIVMTQSPATLSLSPGERATLSCTSSQSVYHANWLSWFQQKPGQPPKLLIYWASTLAYGVPSRFSGSGSGTDFTLTISSLQPEDAATYYCAGGYGGGRYAFGQGTKVEIKRTVAAPSVFIFPPSDEQLKSGTASVVCLLNNFYPREAKVQWKVDNALQSGNSQESVTEQDSKDSTYSLSSTLTLSKADYEKHKVYACEVTHQGLSSPVTKSFNRGEC
notes: as for B3
As to B5, the Kd stood at 1200 nM in test [1]; 4500 nM in test [2]; 2300 nM in test [3]; 1700 nM in test [4]; 2200 nM in test [5]; 8100 nM in test [6]. In test [7], the Kd was 10000 nM.
